The text below walks through data of PMC7491322, “Molecular basis for the distinct cellular functions of the Lsm1–7 and Lsm2–8 complexes” (RNA, 2020).

The labels stand for the following.
B1: S. pombe Lsm3 (natural protein)
chain: not shown
notes: Lsm3, S. pombe, codon-optimised open reading frame; TEV site between GST and Lsm3; The complex was held through the GST on Lsm3 on glutathione agarose during the purification; TEV protease was added to the eluate before the later steps and the crystallisation; source: E. coli BL21(DE3) STAR pLysS, coexpressed with the other Lsm proteins, purified as part of the Lsm2–8 or Lsm1–7 complex; not …

Conditions in all cases: both partners purified
Experiment [1] addresses T1, S. pombe Lsm2 (S. pombe, UniProt O94408 1-96).
T1 construct: Lsm2, S. pombe, codon-optimised open reading frame, no purification tag; source: E. coli BL21(DE3) STAR pLysS, coexpressed with the other Lsm proteins, purified as part of the Lsm2–8 or Lsm1–7 complex
T1 sequence (looked up): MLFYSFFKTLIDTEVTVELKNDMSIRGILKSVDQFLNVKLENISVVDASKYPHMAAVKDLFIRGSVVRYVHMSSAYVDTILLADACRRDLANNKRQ
Briefly: crystal structure; Lsm1_(Δ56C)–7 ring with UUUUUA (1.8 Å) or AUUUUG (2.1 Å); 10% PEG 8000, 20% ethylene glycol, HEPES/MOPS.

For experiment [2], the target named is B1. Briefly: crystal structure; Lsm2–8 ring with UUUUU-3′-OH (1.9 Å) or UUUUU>p (2.3 Å); hanging drop, 16°C, 100–200 mM KCl, 50–100 mM HEPES pH 7.4, 35% pentaerythritol propoxylate.
Experiment [3] concerns the target T2, S. pombe Lsm4 (S. pombe, UniProt O14352 1-121).
T2 construct: Lsm4, S. pombe, codon-optimised open reading frame; noncleavable tag; source: E. coli BL21(DE3) STAR pLysS, coexpressed with the other Lsm proteins, purified as part of the Lsm2–8 or Lsm1–7 complex; not shown: Strep-II, C-terminal, kept
T2 sequence (looked up): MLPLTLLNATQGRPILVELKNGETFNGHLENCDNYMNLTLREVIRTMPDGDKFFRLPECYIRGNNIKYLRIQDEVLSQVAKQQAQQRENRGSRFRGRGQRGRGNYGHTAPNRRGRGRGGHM
Described as above.

The target of experiment [4] is T1, S. pombe Lsm2. The experiment is described as above.
Experiment [5] concerns the target T3, S. pombe Lsm5 (S. pombe, UniProt O42978 2-80).
T3 construct: Lsm5, S. pombe, codon-optimised open reading frame, no purification tag; amino-terminal methionine missing by ESI-MS; source: E. coli BL21(DE3) STAR pLysS, coexpressed with the other Lsm proteins, purified as part of the Lsm2–8 or Lsm1–7 complex
As to the kind of experiment: crystal structure; Lsm1_(Δ56C)–7 ring with UUUUUA (1.8 Å) or AUUUUG (2.1 Å); 10% PEG 8000, 20% ethylene glycol, HEPES/MOPS.

The target of experiment [6] is B1. Described as above.

T3 sequence (O42978 2-80): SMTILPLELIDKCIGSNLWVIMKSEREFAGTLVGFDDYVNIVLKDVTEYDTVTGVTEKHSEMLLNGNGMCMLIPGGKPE

For the molecule B1, the binding result in experiment [1] is listed as “binds”.

B2: S. pombe Lsm8 (natural protein, UniProt O74483 2-94, looked up)
chain: SLADFMEQRVQVITNDGRVVLGSLKGFDHTTNLILSDSFERIISMDQDMETIPLGVYLLRGENVAMVGLVNEELDSEIEWTKIRGEAIPDVVH
notes: Lsm8, S. pombe, codon-optimised open reading frame, no purification tag; amino-terminal methionine missing by ESI-MS; source: E. coli BL21(DE3) STAR pLysS, coexpressed with the other Lsm proteins, purified as part of the Lsm2–8 complex
Regarding B2, the binding result in experiment [2], in experiment [3] and in experiment [4] was “binds” in each case.

B3: S. pombe Lsm6 (natural protein, UniProt Q9UUI1 1-75, looked up)
chain: MDSSPNEFLNKVIGKKVLIRLSSGVDYKGILSCLDGYMNLALERTEEYVNGKKTNVYGDAFIRGNNVLYVSALDD
notes: Lsm6, S. pombe, codon-optimised open reading frame; source: E. coli BL21(DE3) STAR pLysS, coexpressed with the other Lsm proteins, purified as part of the Lsm2–8 or Lsm1–7 complex; not shown: MBP, N-terminal, cleaved
On to B3, for which the binding result in experiment [5] and in experiment [6] was “binds” in each case.
